# From paper PMC11768756
# Biological target: MK-1654 IgG (human)
# Experiment: SPR; Biacore 8K+; MK-1654 IgG captured on a Protein A chip (about 110 RU); 1A6 or 1D4 Fab flowed at 0.4-128 nM, 60 s contact and 60 s dissociation, 30 µL/min; global 1:1 fit; KD = koff/kon; averages of three runs
# MK-1654 IgG (human), sequence (heavy, as listed by the source, chain 1 of 2): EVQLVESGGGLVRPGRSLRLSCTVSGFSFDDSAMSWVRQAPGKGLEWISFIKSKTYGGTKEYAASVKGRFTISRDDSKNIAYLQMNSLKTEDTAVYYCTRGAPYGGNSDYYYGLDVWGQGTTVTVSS
# MK-1654 IgG (human), sequence (light, as listed by the source, chain 2 of 2): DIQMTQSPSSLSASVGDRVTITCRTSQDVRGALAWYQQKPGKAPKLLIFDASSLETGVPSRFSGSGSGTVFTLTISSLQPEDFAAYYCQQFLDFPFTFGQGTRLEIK
Kd [nM],koff [s⁻¹],kon [M⁻¹ s⁻¹],Binder
0.94,0.00628,6.67e+06,"1A6 anti-idiotypic Fab (Fab, V domains shown) VH: QVQLVESGGGLVQPGGSLRLSCAASGFTFSSYAMNWVRQAPGKGLEWVSLISGSGSSTYYADSVKGRFTISRDNSKNTLYLQMNSLRAEDTAVYYCARFHTHGGYFDIWGQGTLVTVSS VL: DIALTQPASVSGSPGQSITISCTGTSSDIGAYTYGSWYQQHPGKAPKLMIYGVNNRPSGVSNRFSGSKSGNTASLTISGLQAEDEADYYCASFDFSVSGVVFGGGTKLTVL"
3.75,0.013,3.5e+06,"1D4 anti-idiotypic Fab (Fab, V domains shown) VH: QVQLVESGGGLVQPGGSLRLSCAASGFTFSSSGLHWVRQAPGKGLEWVSGIDSSSSTTYYADSVKGRFTISRDNSKNTLYLQMNSLRAEDTAVYYCARYYFDVWGQGTLVTVSS VL: DIELTQPPSVSVAPGQTARISCSGDSIGTYAYWYQQKPGQAPVLVIYADDNRPSGIPERFSGSNSGNTATLTISGTQAEDEADYYCSSWATDNAPVFGGGTKLTVL"
